Target: T1, human CD39 naturally expressed on MOLP-8 cells (human, UniProt P49961 1-510)
T1 construct: whole, on cells; also called CD39 antigen; CD39 protein
T1 sequence (looked up): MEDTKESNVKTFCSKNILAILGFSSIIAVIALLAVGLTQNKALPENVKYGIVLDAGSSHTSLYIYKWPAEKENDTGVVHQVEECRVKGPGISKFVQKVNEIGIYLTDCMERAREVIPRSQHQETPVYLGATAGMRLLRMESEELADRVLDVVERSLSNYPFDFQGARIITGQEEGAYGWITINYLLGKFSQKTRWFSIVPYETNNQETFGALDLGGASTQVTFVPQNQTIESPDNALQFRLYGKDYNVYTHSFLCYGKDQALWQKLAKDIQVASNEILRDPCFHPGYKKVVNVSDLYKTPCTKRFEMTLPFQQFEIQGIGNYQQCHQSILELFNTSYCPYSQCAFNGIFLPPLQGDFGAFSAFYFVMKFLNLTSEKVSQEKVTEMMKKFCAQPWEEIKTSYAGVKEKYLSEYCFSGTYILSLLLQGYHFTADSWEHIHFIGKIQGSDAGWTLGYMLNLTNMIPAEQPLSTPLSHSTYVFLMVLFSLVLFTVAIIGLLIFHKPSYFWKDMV
Assay: flow cytometry on MOLP-8 cells, FITC goat anti-human H+L secondary antibody

B1: humanized monoclonal antibody F314 (antibody, human IgG4 S228P, kappa, V domains shown)
VH: QVQLVQSGAEVKKPGASVKVSCKASGYTFTNYWMYWVRQRPGRGLEWIGRIAPSSGATKYNEKFKNRATLTVDTSISTAYMELSRLRSDDTAVYYCARSGIYYDYDWFFDVWGQGTTVTVSS
VL: DIQMTQSPSSLSASVGDRVTITCKASQDINKYIGWYQQKPGKAPKLLIHYTSTLQPGVPSRFSGSGSGRDYTFTISSLQPEDIATYYCLQYHALLFTFGQGTKLEIKR
notes: Expressed in CHO-S cells; also called F314 monoclonal antibody; naked antibody
  binding result: binds

— patent US20250049941A1, “ANTI-CD39 Antibody-Drug Conjugate And Use Thereof” (priority 2021, published 2025)
